Measurements reported in the nanobody polyreactivity screen of Harvey et al. (2022).

test: yeast display, Sf9 membrane polyspecificity reagent, FACS + sequencing; frameworks hold sequencing errors
Outline: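 In a synthetic yeast display library (Saccharomyces cerevisiae BJ5465), nanobody expression was induced with galactose for 36–48 hours. FACS gates were set low and high (top ~1%) using anti-HA fluorescence for expression and streptavidin fluorescence for binding of the Sf9 membrane reagent. Each polyreactivity label is drawn from the gate of origin.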

| Sequence | polyreactivity (PSR sort gate) |
| --- | --- |
| QVQLVESGGGLVQAGGSLRLSCAASGRIFYFNAMGWYRQAPGKERELVATITYIGGSTHYADSVKGRFTISRDNAKNTVYLQMNSLKPEDTAVYYCAVRDGKDTDTYWYGSWGQGTQVTVSS | low polyreactivity |
| QVQLVESGGGLVQAGGSLRLSCAASGRIFYFYAMGWYRQAPGKERELVASISSGGITNYADSVKGRFTISRDNAKNTVYLQMNSLKPEDTAVYYCNAGYASGKYSGGYLYGYWGQGTQVTVSS | low polyreactivity |
| QVQLVESGGGLVQAGGSLRLSCAASGRIFYGNAMGWYRQAPGKERELVAAITRSGGSTYYADSVKGRFTISRDNAKNTVYLQMKSLKPEDTAVYYCAKYRPGIPYYQYGSWGQGNQVTVSS | high polyreactivity |
| QVQLVESGGGLVQAGGSLRLSCAASGRIFYGNVMGWYRQAPGKERELVAAISGGGSTNYADSVKGRFTISRDNAKNTVYLQMNSLKPEDTAVFYCAADSRPWGSSMDYWGQGTKVTVSS | low polyreactivity |
| QVQLVESGGGLVQAGGSLRLSCAASGRIFYGYAMGWYIHAPGKERELVAAITYSGGITYYADSVKGRFTISRDNAKNTVYLQMNSLKPEDTAVYYCATSKSSVTGPDLDYWGQGTQVTVSS | high polyreactivity |
| QVQLVESGGGLVQAGGSLRLSCAASGRIFYGYAMGWYRQAPAKERELVAAISWRGGRTYYADSVKGRFTISRDNAKNTVYLQMNSLKPEDTAVYFCNKDFPPQGQLRNMYYWGQGTLVTVSS | high polyreactivity |
| QVQLVESGGGLVQAGGSLRLSCAASGRIFYGYAMGWYRQAPGKERELVAAIDWSGGSTYADSVKGRFTISRDNAKNTVYLQMNSLKPEDTAVYYCATDWVTSQQPYYWIYEYWGQGTQVTVSS | low polyreactivity |
| QVQLVESGGGLVQAGGSLRLSCAASGRIFYGYAMGWYRQAPGKERELVAAIRWYVGNTYYADSVKGRFTISRDNAKNTVYLQMNSLKPEDTAVYYCNARTEYASSRYYYWGQGTQVTVSS | high polyreactivity |
| QVQLVESGGGLVQAGGSLRLSCAASGRIFYGYAMGWYRQAPGKERELVAAITRGVSTYYADSVKGRFTISRDNAKNTVYLQMNSLKPEDTAVYYCAKDRRVRMDSWGQGTQVTVSS | low polyreactivity |
| QVQLVESGGGLVQAGGSLRLSCAASGRIFYGYAMGWYRQAPGKERELVAGISYRGARTYYADSVKARFTISRDNAKNTVYLQMNSLKPEDTAVYNCNAVPYYPFAFGALDYSGQGTQVTVSS | high polyreactivity |
| QVQLVESGGGLVQAGGSLRLSCAASGRIFYGYAMGWYRQAPGKERELVASISRRGSSTYYADSVKGRFTISRDNAKNTVYLQMNSLKPEDTAVYYCAAGYYPFNYWGQGTQLTVSS | high polyreactivity |
| QVQLVESGGGLVQAGGSLRLSCAASGRIFYGYAMGWYRQAPGNERELVAAISSSGGSTYYADSVKGRFTISRDNAKYTVYLQMNSLKPDDTAVYYCNAQLYRPGYWYDYWGQGTQVTVSS | high polyreactivity |
| QVQLVESGGGLVQAGGSLRLSCAASGRIFYGYTMGWYIQAPGKERELVAAISKHAGSTYYSDSVKGRFTISRDNAKNTVYLQMNSLKPEDTAVYYCAKDSSVQAYYGYWYTSTDDYWGQGTQVTVSS | low polyreactivity |
| QVQLVESGGGLVQAGGSLRLSCAASGRIFYGYTMGWYRQAPGKERELVAAITQRGGNTHYADSVKGRFTISRDNAKNTVYLQMNSLKPEDTAVYYCAAKYYPYVRRVQYYYWGQGTQVTVSS | high polyreactivity |
| QVQLVESGGGLVQAGGSLRLSCAASGRIFYHNAMGWYRQAPGKERELVAAITWSGGSTYYADSVKGRFTISRDNAKNTVYLQMNSLKTDDTAVYYCNALSNRYYSKLGSWGQGTQVTVSS | high polyreactivity |
| QVQLVESGGGLVQAGGSLRLSCAASGRIFYHNTMGWYRQAPGKERELVAAIRSGSSSYYADSVKGRFTISRDNAKNTVYLQMNSLKPEDTAVYYCNARPWYSWGVDYDYWGQGTQVTVSS | low polyreactivity |
| QVQLVESGGGLVQAGGSLRLSCAASGRIFYHYAMGWYRQAPGKERELVATIRRRGSSTYYADSVKGRFTISRDNAKNTVYLQMNSLKPEDTAVYYCAAGPTTNRYNYWGQGTQVTVSS | high polyreactivity |
| QVQLVESGGGLVQAGGSLRLSCAASGRIFYINAMGWYRQAPGKERELVASITGSGGRTYYADSVKGRFTISRDNAKNTVYLQMNSLKPEDTAVYYCNADLYVGYLYYLYDYWGQGTQVTVSS | low polyreactivity |
| QVQLVESGGGLVQAGGSLRLSCAASGRIFYINVMGWYRQAPGKERELVAGITWIGGSTYADSVKGRFTISRDNAKNTVYLQMNSLKPEVTAVYYCNADPDFTVYRYLWPEGVEYWGQGTQVTVSS | low polyreactivity |
| QVQLVESGGGLVQAGGSLRLSCAASGRIFYIYAMGWYRQAPGKERELVATISVSGGRTYYADSVKGRFTISRDNAKNTVYLQMNSLKPEDTAVYYCAKECRFNIHKWYDYWGQGTQVTVSS | low polyreactivity |
| QVQLVESGGGLVQAGGSLRLSCAASGRIFYIYAMGWYRQEPGKERELVAAISRRAASTYYADSVKGRFTISRDNAKNTVYLQMNSLKPEDTAVYYCAADYYDRKVEYYYWGQGTQVTVSS | high polyreactivity |
| QVQLVESGGGLVQAGGSLRLSCAASGRIFYIYTMGWYRQAPGKEREFVAGINWNGGSTYYADSVKGRFTISRDNAKNTVYLQMNSLKPEDTAVYYCNADQYWDRYYYWGQGTQVTVSS | low polyreactivity |

| Sequence | polyreactivity (PSR sort gate) |
| --- | --- |
| QVQLVESGGGLVQAGGSLRLSCAASGRIFYKNAMGWYRPEPGKEREVVAAISSSGTRTYYADSVKGRFTISRENAKNTVSLQMNSLKPEDTAVYYCAAALGWYSAFGYWGQGTQVTVSS | high polyreactivity |
| QVQLVESGGGLVQAGGSLRLSCAASGRIFYKNDLGWYRQAPGTETELVATLTYSDGTTYYADSVKGRFTISRDNAKNTVYLQMNSLKPEDTAVYYCAAQTDSVESDYWGQGTQVTVSS | low polyreactivity |
| QVQLVESGGGLVQAGGSLRLSCAASGRIFYKYAMGWYRQAPGKERELVAGITGSGGSTYYADSVKGRFTISRDNAKNTVYLQMNSLKPEDTAVYYCAKRVSYDYWGQGTQVTVSS | low polyreactivity |
| QVQLVESGGGLVQAGGSLRLSCAASGRIFYKYVMGGYRQAPGKARVLVAAINRSGGTTYYADSVKGRFTISRDNAKKTVYLQMNSQKPEDTAVYYCNATLPAYWPYYYYQGGDDYWGQGTQVTVSS | low polyreactivity |
| QVQLVESGGGLVQAGGSLRLSCAASGRIFYKYVRGCYRQAPGKDRELVATITSGGSTYYADSVKGRFTISRDNAKNTVYLQMNSLNPEDTAVYYCAARKYYSRAYDYWGQGTQVTVSS | high polyreactivity |
| QVQLVESGGGLVQAGGSLRLSCAASGRIFYLNAMGWYRQAPGKERELVATISSGGSTNYADSVKGRFTISRDNAKNTVYLQMNSLKPEDTAVYYCARKSLRYSYVYRDYWGQGTQVTVSS | low polyreactivity |
| QVQLVESGGGLVQAGGSLRLSCAASGRIFYLYAMGWYRQAPGKERELVAAISVSGARTYYADSVKGRFTISRDNAKNTVYLHMNSLKPEDTAVYYCATVGPYRSRRAGDYWGQGTQVTVSS | high polyreactivity |
| QVQLVESGGGLVQAGGSLRLSCAASGRIFYLYAMGWYRQAPGKERELVAAISWGGGSTYYADSVKGRFTISRDNAKNTVYLQMNSLKPEDTAVYYCAAAVTTWVEYDYWGQGTQVTVSS | low polyreactivity |
| QVQLVESGGGLVQAGGSLRLSCAASGRIFYNNVMGWYRQAPGKERELVAAISGNGGSTYYADSVKGRFTISRDNAKNTVYLQMNSLKPEDTAVYYCAKGSHSYLISTGDYWGQGTQVTVSS | low polyreactivity |
| QVQLVESGGGLVQAGGSLRLSCAASGRIFYNYAMGWYRQAPGKERELVAAISGSGGSTYYADSVKGRFTISRDNAKNTVYLQMNSLKPEDTAVYYCAADSYVSPEVRFDYWGQGTQVTVSS | low polyreactivity |
| QVQLVESGGGLVQAGGSLRLSCAASGRIFYPNAMGWYRQAPGKERELVAAISWSGGSTYYADSVKGRFTISRDNAKNTVYLQMNSLKPEDTAVYFCAAKPYQVSSYDFSLRDYWGQGTQVTVSS | low polyreactivity |
| QVQLVESGGGLVQAGGSLRLSCAASGRIFYPNAMGWYRQAPGKERELVAAISWSGGSTYYADSVKGRFTISRDNAKNTVYLQMNSLKPEDTAVYYCNAEYRYYQKTPGRYTNVEYDYWGQGTQVTVSS | low polyreactivity |
| QVQLVESGGGLVQAGGSLRLSCAASGRIFYPYAMGWYRQAPGKERELVAAISLSGGSTLYADSVKGRFTISRDNAKNTVYLQMNSLKPEDTAVYYCAADQRTRYQTRQYYYWGQGTQVTVSS | low polyreactivity |
| QVQLVESGGGLVQAGGSLRLSCAASGRIFYPYAMGWYRQAPGKERELVAAITSGGRTNYADSVKGRFTISRDNAKNTVYLQMNSLKPEDTAVYYCAATRFRHGKRMDYWGQGTQVTVSS | high polyreactivity |
| QVQLVESGGGLVQAGGSLRLSCAASGRIFYPYAMGWYRQAPGKERELVAAITTSSARTYYADSVKGRFTISRDNAKNTVYLQMNSLKPEDTAVYYCAVKRGYYTTYRGYGYWGQGTQVTVSS | high polyreactivity |
| QVQLVESGGGLVQAGGSLRLSCAASGRIFYPYAMGWYRQAPGKERELVAAITYSGGSTYYADSVKGRFTISRDNAKNTVYLQMNSLKPEDTAVYYCNAVQRGSFYLGKFGYWGQGTQVTVSS | high polyreactivity |
| QVQLVESGGGLVQAGGSLRLSCAASGRIFYQNAMGWYRQAPGKERELVAGITRGGSTYYADSVKGRFTISRDNAKNTVYLQMNSLKPEETAVYYCAVAFWRTKWYDYWGQGTQVTVSS | low polyreactivity |
| QVQLVESGGGLVQAGGSLRLSCAASGRIFYQYAMGWYRQAPGKERELVAAISWNGGRTYYADSVKGRFTISRDNAKNTVYLQMNSPKPEDTAVYYCNAVASKSFYYRDNYWGQGTQVTVSS | high polyreactivity |
| QVQLVESGGGLVQAGGSLRLSCAASGRIFYRNAMGWYRQAPGKDRELVAGISKRGGSTYYADSVKGRFTISRDNAKNTVYLQMTSLKPEDTAVYYCNKVSFLNSHKSRGNRYYYWGQGTQVTVSS | high polyreactivity |
| QVQLVESGGGLVQAGGSLRLSCAASGRIFYRNAMGWYRQAPGKEREFVAAITFRSGGTYYADSVKGRFTISRDNAKNTVYLQMNSLKPEDTAVYYCATRYLGASRYGYWGQGTQVTVSS | high polyreactivity |
| QVQLVESGGGLVQAGGSLRLSCAASGRIFYRNAMGWYRQAPGKERELVAAITWRGGSTYYADSVKGRFTISRDNAKNTVYLQMNSLKPEDTAVYYCNTRYGRIHWKANWPEYGYWGQGTQVTVSS | low polyreactivity |
